* marks the point of attachment. CH2Cl = ClC*
What was measured:
[1] = target: T1, cell surface expressed hepsin in LnCap-34 cells (Homo sapiens, UniProt P05981); assay: Pro-MSP activation by cell surface expressed hepsin in LnCap-34 cells; assay type: cell-based; details: 1 μM inhibitor, 15 minutes preincubation, 125I-pro-MSP 25 μg/ml, 3 hours, 37° C.
T1 construct: expressed in transfected cells; host or cells: LnCaP-34 cells
Procedure: Confluent LnCap-34 cells cultured in 24-well plates were washed with serum-free RPMI-1640 medium and were incubated either alone or with different anti-hepsin inhibitors (1 μM of anti-hepsin antibody Fab25/1 μM of KD1/1 μM of Ac-KQLR-cmk (‘KLQR” disclosed as SEQ ID NO:10)) in serum-free RPMI-1640 medium for 15 minutes at 37° C. prior to addition of 125I-labeled pro-MSP (25 μg/ml). After incubation for 3 hours at 37° C., aliquots were removed and analyzed by SDS-PAGE (4-20% gradient gel) (Invitrogen, Carlsbad, Calif.) followed by exposure to X-ray films.

Ron signaling pathway = assay: Immunoblot for phosphorylated downstream kinases in A2780 cells overexpressing human Ron; assay type: cell-based; details: pro-MSP 10 and 50 ng/ml, 10 nM hepsin, 1 hour
Procedure: Immunoblot for the detection of phosphorylated kinases: A human ovarian carcinoma cell line (A2780) overexpressing human Ron was used to study the phosphorylation of Ron and other downstream kinase. Cells at a density of 2×10^5 cells/well were cultured in 12-well plate and serum-starved for 24 hours. The cells were then stimulated with either pro-MSP (10 and 50 ng/ml) alone or in presence of 10 nM Hepsin for 1 hour. Mature MSP from a commercial source and hepsin were used as controls. Samples were prepared by washing cells twice with cold PBS followed by addition of 200 ul lysis buffer. Samples were then analyzed by SDS/PAGE on 4-12% Tris-glycine gels (Invitrogen, Carlsbad, Calif.). Proteins were transferred onto nitrocellulose membranes and subsequently treated with anti-Ron antibody or anti-phospho-AKT antibody or anti-phospho-MAPK antibody or anti-phospho-S6 antibody, overnight at 4° C. After washing, membranes were incubated with IRDye800-conjugated goat anti-mouse IgG (Rockland, Gilbertsville, Pa.) and AlexaFluor 680 goat anti-rabbit IgG (Invitrogen) for 1 h. Proteins were detected with the Odyssey Infrared Imaging System (LI-COR Biosciences, Lincoln, Nebr.).

T1 sequence (P05981 whole entry): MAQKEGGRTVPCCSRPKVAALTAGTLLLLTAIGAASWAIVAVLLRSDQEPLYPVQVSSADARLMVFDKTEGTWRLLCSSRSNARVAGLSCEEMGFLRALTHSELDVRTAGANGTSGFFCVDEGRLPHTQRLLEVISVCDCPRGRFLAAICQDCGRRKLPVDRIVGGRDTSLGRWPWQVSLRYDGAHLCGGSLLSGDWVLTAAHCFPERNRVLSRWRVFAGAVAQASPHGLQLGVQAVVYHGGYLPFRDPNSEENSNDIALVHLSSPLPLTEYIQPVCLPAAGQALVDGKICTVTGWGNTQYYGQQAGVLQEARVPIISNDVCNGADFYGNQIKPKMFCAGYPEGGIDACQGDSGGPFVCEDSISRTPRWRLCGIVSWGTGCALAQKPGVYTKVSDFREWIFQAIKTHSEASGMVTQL

| Substance | blocking of pro-MSP proteolytic cleavage by cell surface hepsin [1] | phosphorylation of MAP kinase and S6 kinase (activation of Ron signaling pathway) (Ron signaling pathway) |
| --- | --- | --- |
| KD1: Kunitz domain 1 (KD1) of HAI-1 or HAI-1B, hepsin inhibitor (TEDYCLASNKVGRCRGSFPRWYYDPTEQICKSFVYGGCLGNKNNYLREEECILACRGV) | effectively blocked |  |
| hepsin: extracellular domain of the human recombinant hepsin, type II transmembrane serine protease |  | Neither hepsin nor pro-MSP alone was effective |
| Ac-KQLR-chloromethylketone (Ac-KQLR-CH2Cl; SMILES CC(=O)N[C@@H](CCCCN)C(=O)N[C@@H](CCC(N)=O)C(=O)N[C@@H](CC(C)C)C(=O)N[C@@H](CCCNC(=N)N)C(=O)CCl) [reference compound] | effectively blocked |  |
